Biological target: T1, MBP-EBF1 (Arabidopsis thaliana, UniProt Q9SKK0 1-628)
T1 construct: EBF1, Arabidopsis thaliana, AT2G25490; source: purified using amylose resin
T1 sequence (looked up): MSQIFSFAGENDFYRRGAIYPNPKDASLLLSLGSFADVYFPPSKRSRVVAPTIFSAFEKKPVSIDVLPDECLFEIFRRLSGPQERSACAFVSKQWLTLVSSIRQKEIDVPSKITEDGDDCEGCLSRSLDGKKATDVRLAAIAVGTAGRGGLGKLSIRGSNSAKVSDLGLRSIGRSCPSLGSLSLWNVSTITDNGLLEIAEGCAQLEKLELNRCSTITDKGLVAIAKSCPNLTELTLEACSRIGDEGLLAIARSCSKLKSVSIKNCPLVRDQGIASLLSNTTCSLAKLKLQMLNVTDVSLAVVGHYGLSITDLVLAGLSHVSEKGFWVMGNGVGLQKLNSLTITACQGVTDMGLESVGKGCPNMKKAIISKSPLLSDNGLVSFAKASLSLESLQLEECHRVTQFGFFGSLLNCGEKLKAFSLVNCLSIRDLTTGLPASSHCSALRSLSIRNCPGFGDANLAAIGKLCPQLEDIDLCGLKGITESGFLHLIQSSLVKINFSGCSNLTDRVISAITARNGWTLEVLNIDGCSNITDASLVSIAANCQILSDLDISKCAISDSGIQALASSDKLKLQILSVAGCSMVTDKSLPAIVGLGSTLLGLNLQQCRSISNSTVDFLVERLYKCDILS
Assay: pull-down; glutathione beads with 1 µg GST-BZR1 incubated with 1 µg MBP or MBP-EBF1; 20 mM Tris-HCl pH 7.5, 100 mM NaCl, 1 mM EDTA; washed 10 times with 300 mM NaCl, 0.5% Triton X-100; immunoblot with anti-MBP
Conditions: both partners purified

binding result: binds
B1: GST-BZR1 (natural protein, Arabidopsis thaliana, UniProt Q8S307 1-336, looked up)
chain: MTSDGATSTSAAAAAAAAAAARRKPSWRERENNRRRERRRRAVAAKIYTGLRAQGDYNLPKHCDNNEVLKALCVEAGWVVEEDGTTYRKGCKPLPGEIAGTSSRVTPYSSQNQSPLSSAFQSPIPSYQVSPSSSSFPSPSRGEPNNNMSSTFFPFLRNGGIPSSLPSLRISNSCPVTPPVSSPTSKNPKPLPNWESIAKQSMAIAKQSMASFNYPFYAVSAPASPTHRHQFHTPATIPECDESDSSTVDSGHWISFQKFAQQQPFSASMVPTSPTFNLVKPAPQQMSPNTAAFQEIGQSSEFKFENSQVKPWEGERIHDVGMEDLELTLGNGKARG
notes: BZR1, Arabidopsis thaliana, At1G75080; also called glutathione S-transferase (GST) fusion protein GST-BZR1; source: bacteria, purified (glutathione beads)

Reference: PMC9785488, “EBF1 Negatively Regulates Brassinosteroid-Induced Apical Hook Development and Cell Elongation through Promoting BZR1 Degradation” (International Journal of Molecular Sciences, 2022)
